According to patent US20240287208A1 (CONCEPT TO MEDICINE BIOTECH, published 2024):

How the values were obtained:
[1] = target: T1, human CD40 on the cell surface (human, UniProt P25942 21-277); experiment: cell-based or functional assay
human 4-1BB protein = target: T2, human 4-1BB protein (human, UniProt Q07011 24-186); experiment: ELISA, plate-coated protein
T2 construct: also called 4-IBB
Procedure: (§1) To evaluate the cross reactivity of chimeric anti-CD40 antibodies to other family members of TNF receptors, the ELISA binding towards human 4-1BB and human OX40 were performed.
(§2) Briefly, microtiter plates were coated with human 4-1BB protein or human OX40 protein at 1 μg/ml in PBS, 100 μl/well at 4° C. overnight, then blocked with 150 μl/well of 1% BSA. Ten-fold dilutions of 42p155, 2p834, 2p931, 42p655, 2p1294, 2p957, 42p495, 3p78, 2p415, 2p442, 2p551, 2p80 and 2p1130 antibodies starting from 100 nM were added to each well and incubated for 1 hour at RT. The plates were washed with PBS/Tween and then incubated with Anti-Human IgG (H&L) (GOAT) Antibody Peroxidase Conjugated for 30 mins at RT. After washing, the plates were developed with TMB substrate and analyzed by spectrophotometer at OD 450 nm.

human OX40 protein = target: T3, human OX40 protein (human, UniProt P43489 29-216, limits assumed); experiment: ELISA, plate-coated protein
T3 sequence (looked up): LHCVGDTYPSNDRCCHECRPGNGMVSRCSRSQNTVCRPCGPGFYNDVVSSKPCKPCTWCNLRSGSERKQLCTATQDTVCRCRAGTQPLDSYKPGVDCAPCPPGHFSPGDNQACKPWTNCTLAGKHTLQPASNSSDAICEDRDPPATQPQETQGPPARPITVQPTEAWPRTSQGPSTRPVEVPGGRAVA
Procedure: as §1, §2

human CD40-His protein = target: T4, human CD40-His protein (human, UniProt P25942 21-193); experiment: ELISA, plate-coated human CD40-His
T4 construct: His-tagged recombinant protein; also called human CD40-his tag; recombinant CD40 protein
Procedure: (§3) To evaluate the binding activity of clones 42p155, 2p834, 2p931, 42p655, 2p1294, 2p957, 42p495, 3p78, 2p415, 2p442, 2p551, 2p80 and 2p1130, the chimeric monospecific antibody (mAb) from these clones were subjected to ELISA test, along with selicrelumab, the clinical benchmark anti-CD40 agonist antibodies.
as §2, with “human CD40-His” for “human 4-1BB protein or human OX40”, “at 1.0” for “at 1”, “150 µl/well” for “150 μl/well”

[2] = target: T5, cynomolgus CD40-His protein (cynomolgus, UniProt G7PG38 21-193); experiment: ELISA, plate-coated cynomolgus CD40-His
T5 construct: His-tagged recombinant protein; also called cyno CD40 antigen
Procedure: as §3
as §2, with “The binding affinity of these clones to cynomolgus CD40 was also tested. Microtiter plates” for “Briefly, microtiter plates”, “with cynomolgus CD40-His” for “with human 4-1BB protein or human OX40”, “at 1.0” for “at 1”, “100 µl/well” for “100 μl/well”, “150 µl/well” for “150 μl/well”, “nm. As shown in FIG. 1B and Table 2, all these clones bound to cynomolgus CD40 at high activity, showing good cross-reactivity between human and cynomolgus CD40 proteins.” for “nm.”

[3] = target: T1, human CD40 on the cell surface; experiment: FACS, Jurkat cells overexpressing human CD40, PE anti-human IgG, MFI
Procedure: To evaluate the binding affinity of 5T4-CD40 bispecific antibodies to cell surface CD40, bispecific antibodies with formats of b 1 (42p155z2), b12 (42p155z2), b13 (42p155z2), b16 (42p155z2), b17 (42p155z2) and b18 (2p1130) were tested in Jurkat cell lines that overexpressed CD40 by FACS. A total number of 1×10⁵ Jurkat-CD40 cells in each well were incubated with 5-fold serially diluted antibodies starting from 100 nM for 30 minutes at 4° C. in FACS buffer. After wash by FACS buffer, PE conjugated-anti-human IgG antibody was added to each well and incubated at 4° C. for 30 minutes. After wash, MFI of PE was evaluated by MACSQuant Analyzer 16.

T4 sequence (P25942 21-193 limits assumed): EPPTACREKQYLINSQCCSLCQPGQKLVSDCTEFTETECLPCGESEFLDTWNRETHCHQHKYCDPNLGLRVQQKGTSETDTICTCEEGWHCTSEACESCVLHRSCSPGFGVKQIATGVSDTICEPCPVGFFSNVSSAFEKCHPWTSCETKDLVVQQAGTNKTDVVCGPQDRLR
T1 sequence (P25942 21-277): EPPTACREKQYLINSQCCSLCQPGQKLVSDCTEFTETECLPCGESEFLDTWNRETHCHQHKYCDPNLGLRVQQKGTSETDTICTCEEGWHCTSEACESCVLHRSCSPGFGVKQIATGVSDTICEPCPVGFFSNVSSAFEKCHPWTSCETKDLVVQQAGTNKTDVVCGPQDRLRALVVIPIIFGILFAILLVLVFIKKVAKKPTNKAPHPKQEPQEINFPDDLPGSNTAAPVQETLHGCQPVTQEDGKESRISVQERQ

Binder	CD40 NF-κB luciferase reporter (Jurkat), RLU [1] [nM]	binding result (human 4-1BB protein)	binding result (human OX40 protein)	EC50 (human CD40-His protein) [nM]	EC50 [2] [nM]	EC50 (read off the curve) [3] [nM]	binding result [3]
2p551 chimeric monospecific antibody (antibody, V domains shown, Chimeric monospecific antibody) VH: QLHFVESGGGLVQPGGSLRLSCAASGFTLDYYAIGWFRQAPGKEREGVSCISGGGSTRYADSVKGRFTISRDNAKNTVYLQMNSLTPEDTAVYYCAAARLLSTNCVPRDSGSWGQGTQVTVSS	> 10	no binding (tested: 100 nM (highest concentration))	no binding (tested: 100 nM (highest concentration))	1.4	0.13		
2p415 chimeric monospecific antibody (antibody, V domains shown, Chimeric monospecific antibody) VH: QLHFVESGGGLVQPGGSLRLSCAASGFTLDHYAMGWFRQAPGKEREGVSCISGGGSTRYADSAKGRFTISRDNAKNTVYLQMNSLTPEDTAVYYCAAARLLSRNCVPRDSGSWGQGTQVTVSS	> 10	no binding (tested: 100 nM (highest concentration))	no binding (tested: 100 nM (highest concentration))	1.27	0.23		
2p1130 chimeric monospecific antibody (antibody, V domains shown, Chimeric monospecific antibody) VH: EVQVVESGGGLVQPGGSLRLTCAASGFSVDDYGIGWFRQAPGREREGVACITPNGLMMNFANTVGSVAGRFSASRDSGENTVSLQMSSLKPEDTAIYFCAHSRDDSCRGSLSDYDDWGQGTQVTVSS	> 10	no binding (tested: 100 nM (highest concentration))	no binding (tested: 100 nM (highest concentration))	2.56	0.73		
2p957 chimeric monospecific antibody (antibody, V domains shown, Chimeric monospecific antibody) VH: PVQLVESGGGLVQPGGSLRLSCAASGFSFRNYIMSWVRQAPGKGLEWLSSITNSGGITSYTESVKGRFTISRDNAKNTLYLQMNSLKPEDTAVYYCAQGGSDNYYRGSWGQGTQVTVSS	> 10	no binding (tested: 100 nM (highest concentration))	no binding (tested: 100 nM (highest concentration))	1.8	1.08		
b18 (2p1130) anti-5T4/CD40 bispecific antibody (bispecific antibody, human IgG1, kappa, N297A, also called 1+3 b18 format) heavy 1: EVQLQQSGPELVKPGASVKISCKASGYAFSSSWMNWVKQRPGKGLEWIGRIYREDGHTNYNGKFKGKATLTADKSSTTAYMQLTSLTSEDSAVYFCANGGAMDYWGQGTSVTVSSASTKGPSVFPLAPSSKSTSGGTAALGCLVKDYFPEPVTVSWNSGALTSGVHTFPAVLQSSGLYSLSSVVTVPSSSLGTQTYICNVNHKPSNTKVDKKVEPKSCDKTHTCPPCPAPELLGGPSVFLFPPKPKDTLMISRTPEVTCVVVDVSHEDPEVKFNWYVDGVEVHNAKTKPREEQYASTYRVVSVLTVLHQDWLNGKEYKCKVSNKALPAPIEKTISKAKGQPREPQVCTLPPSREEMTKNQVSLSCAVKGFYPSDIAVEWESNGQPENNYKTTPPVLDSDGSFFLVSKLTVDKSRWQQGNVFSCSVMHEALHNHYTQKSLSLSPGK light: DIQMTQSTSSLSASLGDRVTISCRASQDISNYLNWYQQKPDGTVKLLIYYTSRLHSGVPSRFSGSGSGTDYSLTISNLEQEDIATYFCQQDNTLPWTFGGGTKLEIKRTVAAPSVFIFPPSDEQLKSGTASVVCLLNNFYPREAKVQWKVDNALQSGNSQESVTEQDSKDSTYSLSSTLTLSKADYEKHKVYACEVTHQGLSSPVTKSFNRGEC heavy 2: not shown						~2	
b11 (42p155z2) anti-5T4/CD40 bispecific antibody (bispecific antibody, human IgG1, kappa, N297A, also called b 1 (42p155z2); 2+2 b11 format) heavy: not shown light: DIQMTQSTSSLSASLGDRVTISCRASQDISNYLNWYQQKPDGTVKLLIYYTSRLHSGVPSRFSGSGSGTDYSLTISNLEQEDIATYFCQQDNTLPWTFGGGTKLEIKRTVAAPSVFIFPPSDEQLKSGTASVVCLLNNFYPREAKVQWKVDNALQSGNSQESVTEQDSKDSTYSLSSTLTLSKADYEKHKVYACEVTHQGLSSPVTKSFNRGEC							binds
b13 (42p155z2) anti-5T4/CD40 bispecific antibody (bispecific antibody, human IgG1, kappa, N297A, also called 2+2 b13 format) heavy: not shown light: DIQMTQSTSSLSASLGDRVTISCRASQDISNYLNWYQQKPDGTVKLLIYYTSRLHSGVPSRFSGSGSGTDYSLTISNLEQEDIATYFCQQDNTLPWTFGGGTKLEIKRTVAAPSVFIFPPSDEQLKSGTASVVCLLNNFYPREAKVQWKVDNALQSGNSQESVTEQDSKDSTYSLSSTLTLSKADYEKHKVYACEVTHQGLSSPVTKSFNRGECGGGGSGGGGSGGGGSGGGGSEVQLVESGGGLVQPGGSLRLSCAASGFAFRSYTMSWVRQAPGKGLEWVSTITHNGAITTYAESAQGRFTISRDNSKNTLYLQMNSLRAEDTAVYYCAQGGGSNYYRESWGQGTQVTVSS							binds
42p495 chimeric monospecific antibody (antibody, V domains shown, Chimeric monospecific antibody) VH: PVQLVESGGNLVQPGGSLRLSCVAPGFTSRNSAMSWVRQAPGKGLEWVSTIYSGKSNTDYADSVKGRFTISTDNAKNTLYLHMNKLKSEDTAVYYCAKGAASDWYVPRDYWGQGTQVTVSS	> 10	no binding (tested: 100 nM (highest concentration))	no binding (tested: 100 nM (highest concentration))	1.52	1		
42p155 chimeric monospecific antibody (antibody, V domains shown, Chimeric monospecific antibody (cAb) made from the VHH; also called 42p155 cAb) VH: PSQLVESGGGLVQPGGSLRLSCAASGFAFRSYTMSWVRQAPGKGLEWVSTITHNGAITTYAESAQGRFTISRDNAKNTLYLQMNSLKPEDTAVYYCAQGGGSNYYRESWGQGTQVTVSS	> 10	no binding (tested: 100 nM (highest concentration))	no binding (tested: 100 nM (highest concentration))				
2p1294 chimeric monospecific antibody (antibody, V domains shown, Chimeric monospecific antibody) VH: QVQLVESGGGLVQPGGSLRLSCAASGFSFRRYTMSWVRQAPGKGLEWVSAISDNGAITTYTESAQGRFTISRDNAKNTLYLQMNSLKPEDTAVYYCAQGGGSNYYRESWGQGTQVTVSS	> 10	no binding (tested: 100 nM (highest concentration))	no binding (tested: 100 nM (highest concentration))	1.16	0.32		
42p655 chimeric monospecific antibody (antibody, V domains shown, Chimeric monospecific antibody) VH: AVQLVESGGGLVQPGGSLRLSCAASGFAFRRYTMSWVRQAPGKGLEWVSSITDNGSITTYAESAQGRFTISRDNAKNTLYLQMNSLKPEDTAVYHCAQGGGSNYYRESWGQGTQVTVSS	> 10	no binding (tested: 100 nM (highest concentration))	no binding (tested: 100 nM (highest concentration))	1.24	0.35		
